Measurements taken from US20030180744, “High affinity oligonucleotide ligands to growth factors” (GILEAD SCIENCES, INC., published 2003).

Experiments:
[1] = target: T1, PDGF-BB (Homo sapiens, UniProt P01127 P01127:82-190); assay: filter; +/-0.009; high affinity component; PBSM, 37 C; details: tags: R&D Systems, E. coli; chain copies: 2 (inferred); label: 5'-32P; three-way helix junction
Experimental: (§1) The fraction of ³²P 5′ nd-labeled DNA ligands bound to varying concentrations of PDGF was determined by the nitrocellulose filter binding method. Minimal ligands tested were 20t (o), 36t (Δ), and 41t (□). Oligonucleotide concentrations in these experiments were ≈10 pM (PDGF-AB and PDGF-BB) and ≈50 pM (PDGF AA). Data points were fitted to eq. 1 (for binding of the DNA ligands to PDGF-AA) or to eq. 2 (for binding to PDGF AB and BB) using the non-linear least squares method. Binding reactions were done at 37° C. in binding buffer (PBSM with 0.01% HSA).
(§2) The binding of ssDNA ligands at low concentrations to varying concentrations of PDGF was determined by the nitrocellulose filter binding method as described (Green et al., (1995) Chemistry and Biology 2:683-695). The concentrations of PDGF stock solutions (in PBS) were determined from the absorbance readings at 280 nm using the following e₂₈₀ values calculated from the amino acid sequences (Gill, S.C. and von Hippel, P. H. (1989) Anal. Biochem. 182:319-326): 19,500 M⁻¹cm⁻¹ for PDGF-AA, 15,700 M⁻¹cm⁻¹ for PDGF-AB and 11,800 M⁻¹cm⁻¹ for PDGF-BB. ssDNA for all binding experiments were purified by electrophoresis on 8% (>80 nucleotides) or 12% (<40 nucleotides) polyacrylamide/7 M urea gels. […]

[2] = target: T2, PDGF-AA (Homo sapiens, UniProt P04085 P04085:87-211); assay: filter; +/-12; PBSM, 37 C; comparable to random DNA; details: tags: R&D Systems, E. coli, long form of A-chain; chain copies: 2 (inferred); label: 5'-32P; three-way helix junction
Experimental: as §1, §2

[3] = target: T3, PDGF-AB (Homo sapiens, UniProt P04085;P01127 P04085:87-211,P01127:82-190); assay: filter; +/-0.011; high affinity component; PBSM, 37 C; details: tags: R&D Systems, E. coli; label: 5'-32P; three-way helix junction
Experimental: as §1
(§3) The binding of ssDNA ligands at low concentrations to varying concentrations of PDGF was determined by the nitrocellulose filter binding method as described (Green et al., (1995) Chemistry and Biology 2:683-695). The concentrations of PDGF stock solutions (in PBS) were determined from the absorbance readings at 280 nm using the following e₂₈₀ values calculated from the amino acid sequences (Gill, S.C. and von Hippel, P. H. (1989) Anal. Biochem. 182:319-326): 19,500 M⁻¹cm⁻¹ for PDGF-AA, 15,700 M⁻¹cm⁻¹ for PDGF-AB and 11,800 M⁻¹cm⁻¹ for PDGF-BB. ssDNA for all binding experiments were purified by electrophoresis on 8% (>80 nucleotides) or 12% (<40 nucleotides) polyacrylamide/7 M urea gels. All ssDNA ligands were heated at 90° C. in binding buffer at high dilution (1 μM) for 2 min and cooled on ice prior to further dilution into the protein solution. The binding mixtures were typically incubated for 15 min at 37° C. before partitioning on nitrocellulose filters.
(§4) ^aData points shown in FIG. 5A were fitted to eq 1 (Example 7). ^bData points in FIGS. 5B and 5C were fitted to eq. 2.

[4] = target: T2, PDGF-AA; assay: filter; +/-4; PBSM, 0.01% HSA, 37 C; comparable to random DNA; details: tags: R&D Systems, E. coli, long form of A-chain; chain copies: 2 (inferred); label: 5'-32P; three-way helix junction
Experimental: as §1, §2

[5] = target: T1, PDGF-BB; assay: filter; +/-0.031; high affinity component; PBSM, 37 C; details: tags: R&D Systems, E. coli; chain copies: 2 (inferred); label: 5'-32P; three-way helix junction
Experimental: as §1, §4

[6] = target: T3, PDGF-AB; assay: filter; +/-34; high affinity component of biphasic binding; details: tags: R&D Systems, E. coli
Experimental: (§5) Briefly, the 2′-fluoro-2′-deoxypyrimidine RNA for affinity selections was prepared by in vitro transcription from synthetic DNA templates using T7 RNA polymerase (Milligan et al., Nucl. Acids Res. 15:8783 (1987)). The conditions for in vitro transcription described in detail previously (Jellinek et al., (1994) supra) were used, except that higher concentration (3 mM) of the 2′-fluoro-2′-deoxypyrimidine nucleoside triphosphates (2′-F-UTP and 2′-F-CTP) was used compared to ATP and GTP (1 mM). Affinity selections were done by incubating PDGF AB with 2′-fluoro-2′-deoxypyrimidine RNA for at least 15 min at 37° C. in PBS containing 0.01% human serum albumin. Partitioning of free RNA from protein-bound RNA was done by nitrocellulose filtration as described (Jellinek et al., (1993, 1994) supra). Reverse transcription of the affinity-selected RNA and amplification by PCR were done as described previously (Jellinek et al., (1994) supra). […] The affinity-enriched pool (round 19) was cloned and sequenced as described (Schneider et al., (1992) supra). The unique-sequence ligands were screened for their ability to bind PDGF AB with high affinity.

[7] = target: T3, PDGF-AB; assay: filter; +/-0.009; high affinity component; PBSM, 37 C; details: tags: R&D Systems, E. coli; label: 5'-32P; three-way helix junction
Experimental: as §1, §2

[8] = target: T2, PDGF-AA; assay: filter; +/-8; PBSM, 37 C; comparable to random DNA; details: tags: R&D Systems, E. coli, long form of A-chain; chain copies: 2 (inferred); label: 5'-32P; three-way helix junction
Experimental: as §1, §2

[9] = target: T1, PDGF-BB; assay: filter; +/-0.011; high affinity component; PBSM, 37 C; details: tags: R&D Systems, E. coli; chain copies: 2 (inferred); label: 5'-32P; three-way helix junction
Experimental: as §1, §3, §4

[10] = target: T4, TGFβ1 (Homo sapiens, UniProt P01137 P01137:279-390); assay: filter; 37 C; cell IC50 210 nM; details: tags: Genentech; biotinylated version used in bead assay; chain copies: 2
[11] = target: T4, TGFβ1; assay: cell_activity; details: tags: Genentech or R&D Systems; chain copies: 2
Experimental: MLEC-Pail/luc cells were plated at 3.2×10⁴ cells per well in a 96 well Falcon plate, in 100 μl of DME+10% fetal bovine serum overnight. Media was made from autoclaved water. The cells were washed three times ([…]) in serum free DME plus Solution A (1:1). Solution A is 30 mM Hepes pH 7.6, 10 mM glucose, 3.0 mM KCl, 131 mM NaCl, 1.0 mM disodium phosphate. Samples (100 μl) were added in DME containing 20 mM Hepes pH 7.5, and 0.1% BSA (Fluka, radioimmunoassay grade). All samples were in triplicate. After six hours at 37° C. in a 5% CO₂ incubator the media was removed and cells were washed three times (100 μl each) in cold PBS. Lysis buffer (75 μl) (Analytical Luminescence Laboratory) was added and the plates incubated on ice for 20 min. The plates were sealed and frozen at −80° C. until assayed. Samples (25 μl) were assayed for luciferase activity with the Enhanced Luciferase Assay Kit from Analytical Luminescence Laboratory (San Diego, Calif., USA) according to the manufacturer's instructions using the Berthold Microlumat LB96P luminometer.
Ligands tested for inhibition of TGFβ1 activity were tested at a minimum of five concentrations. The ligands were serially diluted in DME, 20 mM Hepes pH 7.5, 0.1% Fluka BSA in polypropylene tubes and an equal volume of media containing 12 pM TGFβ1 was added to each tube, vortexed and transferred to the cells without further incubation.

[12] = target: T4, TGFβ1; assay: filter; 37 C; cell IC50 124 nM; details: tags: Genentech; biotinylated version used in bead assay; chain copies: 2
[13] = target: T3, PDGF-AB; assay: filter; thrombin aptamer control; details: tags: R&D Systems, E. coli; stem-loop
Experimental: as §3

[14] = target: T5, KGF (hKGF) (Homo sapiens, UniProt P21781 P21781:32-194); assay: competition; PC-3 cells; details: tags: Upstate Biotechnology
T5 sequence: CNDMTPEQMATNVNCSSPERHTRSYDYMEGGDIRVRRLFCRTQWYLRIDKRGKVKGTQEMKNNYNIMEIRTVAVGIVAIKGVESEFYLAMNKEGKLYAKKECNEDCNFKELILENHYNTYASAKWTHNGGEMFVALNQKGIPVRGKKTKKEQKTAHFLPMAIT
Experimental: PC-3 cells were plated in 24-well plates at about 10⁵ cells per well. Following growth for […], the cells were serum starved for 24 hours, washed two times with 500 μl of cold DPBS, and then incubated with 500 μl binding buffer (BB1; DPBS, 0.5 mM MgCl₂, 0.2% BSA. 0.02% sodium azide) containing various concentrations of ¹²⁵I-labeled KGF ranging from 0 to 0.8 nM. Following 3-3.5 hour incubation at 4° C., the binding mixes were aspirated and the well-adhered cells were washed two times with 1 ml BB1 and once with 1 ml BB1 supplemented with 0.5M NaCl. The remaining bound labeled hKGF was solubilized in 600 μl 0.5% SDS/0.1M NaOH and counted in a gamma counter (Beckmann). Nonspecific binding was determined in the presence of 100 fold molar excess of unlabeled hKGF. For competition assays, the labeled hKGF was kept constant at […], and varying concentrations of competitor molecules were included in the binding reactions ranging from 0-1,000 nM. Binding curves were fitted to the equation: […]
A subset of these ligands was tested on the NIH3T3/FGFR-2. In determining the Ki values, it was assumed that 3T3 cells have 500,000 binding sites per cell and PC-3 cells have 5,000 binding sites per cell.

[15] = target: T5, KGF (hKGF); assay: filter; biphasic, high affinity 28%; details: tags: Upstate Biotechnology; label: 32P
[16] = target: T4, TGFβ1; assay: filter; 37 C; cell IC50 17 nM; details: tags: Genentech; biotinylated version used in bead assay; chain copies: 2
[17] = target: T4, TGFβ1; assay: filter; 37 C; cell IC50 49 nM; details: tags: Genentech; biotinylated version used in bead assay; chain copies: 2
[18] = target: T3, PDGF-AB; assay: filter; +/-38; high affinity component of biphasic binding; details: tags: R&D Systems, E. coli
Experimental: as §5

T1 sequence (P01127 82-190, one chain of several): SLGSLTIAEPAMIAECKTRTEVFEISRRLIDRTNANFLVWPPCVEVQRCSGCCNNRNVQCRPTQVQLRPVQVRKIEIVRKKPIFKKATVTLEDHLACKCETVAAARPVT
T3 sequence (P01127 82-190, chain 2 of 2, other chains not shown): as the sequence (P01127 82-190, one chain of several) above
T4 sequence (P01137 279-390, one chain of several): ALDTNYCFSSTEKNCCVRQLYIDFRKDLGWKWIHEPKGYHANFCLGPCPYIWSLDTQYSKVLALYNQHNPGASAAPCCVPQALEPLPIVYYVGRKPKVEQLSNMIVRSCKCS

B1: 36t (ssDNA)
DNA: CACAGGCTACGGCACGTAGAGCATCACCATGATCCTGTGT
modifications: 3'-3' linked T at 3' end
- Kd [1]: 0.093 nM
- Kd [2]: 72 nM
- Kd [3]: 0.094 nM

B2: 20t (ssDNA)
DNA: TGGGAGGGCGCGTTCTTCGTGGTTACTTTTAGTCCCGT
modifications: 3'-3' linked T at 3' end
- Kd [4]: 47 nM
- Kd [3]: 0.147 nM
- Kd [5]: 0.127 nM

B3: PDGF 2'-F clone 16 (ssRNA)
RNA: GGGAGACAAGAAUAACGCUCAACGAACGAGGAGGGAGUGGCAAGGGAUGGUUGGAUAGGCUCUACGCUCAUUCGACAGGAGGCUCACAACAGGC
modifications: 2'-F pyrimidines
- Kd [6]: 0.116 nM

B4: 41t (ssDNA)
DNA: TACTCAGGGCACTGCAAGCAATTGTGGTCCCAATGGGCTGAGTAT
modifications: 3'-3' linked T at 3' end
- Kd [7]: 0.138 nM
- Kd [8]: 49 nM
- Kd [9]: 0.129 nM

B5: lib8-9 (ssRNA)
RNA: GGGGGAGAACGCGGAUCCGCAAUCCCAGGCGCAUAGCUUCCGAGUAGACAGGAGGGAGGGGUGGAUGUGGCGUCUACUCGGCGUCGUGAAGCUUCGCUCUAGAUCUCCCUUUAGUGAGGGUUA
modifications: 2'-NH2 pyrimidines
- Kd [10]: 1.7 nM
- IC50 [11]: 210 nM

B6: lib8-9* (ssRNA)
RNA: GGGGGAGAACGCGGAUCCGCAAUCCCAGGCGCAUAGCUUCCGAGUAGACAGGAGGGAGGGGUGGAUGUGGCGUCUACUCGGCGUCGUGAAGCUUCGCUCUAGAUCUCCCUUUAGUGAGGGUUA
modifications: 2'-NH2 U, 2'-F C
- Kd [12]: 2.8 nM

B7: T39 (ssDNA)
DNA: CAGTCCGTGGTAGGGCAGGTTGGGGTGACTTCGTGGAAT
modifications: 3'-3' linked T at 3' end
- Kd [13]: 230 nM

B8: 13F (ssRNA)
RNA: GGGAGGACGAUGCGGCACCUUAGACCUGUCCUCCAAGCGUGAGUUGCUGUGGCCCAGACGACUCGCCCGA
modifications: 2'-F pyrimidines
- IC50 [14]: 30 nM
- Kd [15]: 0.03 nM

B9: lib5-7 (ssRNA)
RNA: GGGGGAGAACGCGGAUCCGAGCAAGCCCUGGCAUAGCUUCCGAGUAGACAGGAGGGAGGGGUGGAUGUGGCGUCUACUCGGUGUCGUGAAGCUUCGCUCUAGAUCUCCCUUUAGUGAGGGUUA
modifications: 2'-NH2 pyrimidines
- IC50 [11]: 17 nM
- Kd [16]: 3.4 nM

B10: lib5-5 (ssRNA)
RNA: GGGGGAGAACGCGGAUCCGAGCAAUCCCAGGCGCAUAGCUUCCGAGUAGACAGGAGGGAGGGGUGGAUGUGGCGUCUCGAGGAAGCUUCGCUCUAGAUCUCCCUUUAGUGAGGGUUA
modifications: 2'-NH2 pyrimidines
- Kd [17]: 2.4 nM
- IC50 [11]: 49 nM

B11: PDGF 2'-F clone 23 (ssRNA)
RNA: GGGAGACAAGAAUAACGCUCAAUCGAUCGGUUGUGUGCCGGACAGCUUUGACCAUGAGCUGGGACCGAGGCCUUCGACAGGAGGCUCACAACAGGC
modifications: 2'-F pyrimidines
- Kd [18]: 0.173 nM
